In US20120204282:

Tests used:
Assay in all cases: cell_activity
[1] = system: ZFN 23974 (synthetic construct); details: Cel-I assay; as pair 23966/23974
[2] = system: ZFN 22524 (synthetic construct); details: Cel-I assay; as pair 22524/23947; pair also used for in vivo Q344X correction in mouse retina
[3] = system: ZFN 22529 (synthetic construct); details: Cel-I assay; as pair 23950/22529
[4] = system: ZFN 23950 (synthetic construct); details: Cel-I assay; as pair 23950/22529
[5] = system: ZFN 23966 (synthetic construct); details: Cel-I assay; as pair 23966/23974
[6] = system: ZFN 23947 (synthetic construct); details: Cel-I assay; as pair 22524/23947; pair also used for in vivo Q344X correction in mouse retina

## ATGTCCAGGCTGCTGCCTCGGTCCCATT (double strand) [RHO intron 1 site for 23974]
[1]
  activity: 9.3 % NHEJ

## CAGTGGGTTCTTGCCGCAGCAGATGGTG (double strand) [RHO exon 5 site for 22524]
[2]
  activity: 11.5 % NHEJ

## GAGCCATGGCAGTTCTCCATGCTGGCCG (double strand) [RHO exon 1 site for 22529]
[3]
  activity: 8.7 % NHEJ

## GCCAGGTAGTACTGTGGGTACTCGAAGG (double strand) [RHO exon 1 site for 23950]
[4]
  activity: 8.7 % NHEJ

## GGGGAGACAGGGCAAGGCTGGCAGAGAG (double strand) [RHO intron 1 site for 23966]
[5]
  activity: 9.3 % NHEJ

## GTGACGATGAGGCCTCTGCTACCGTGTC (double strand) [RHO exon 5 site for 23947]
[6]
  activity: 11.5 % NHEJ
